In IntAct's records for PubMed 32296183:

What was measured:
gp152_human GPR152 = gp152_human GPR152 (UniProt Q8TDT2)
tm52b_human TMEM52B = tm52b_human TMEM52B (UniProt Q4KMG9)
kash5_human KASH5 = target: T1, kash5_human KASH5 (UniProt Q8N6L0)
T1 sequence: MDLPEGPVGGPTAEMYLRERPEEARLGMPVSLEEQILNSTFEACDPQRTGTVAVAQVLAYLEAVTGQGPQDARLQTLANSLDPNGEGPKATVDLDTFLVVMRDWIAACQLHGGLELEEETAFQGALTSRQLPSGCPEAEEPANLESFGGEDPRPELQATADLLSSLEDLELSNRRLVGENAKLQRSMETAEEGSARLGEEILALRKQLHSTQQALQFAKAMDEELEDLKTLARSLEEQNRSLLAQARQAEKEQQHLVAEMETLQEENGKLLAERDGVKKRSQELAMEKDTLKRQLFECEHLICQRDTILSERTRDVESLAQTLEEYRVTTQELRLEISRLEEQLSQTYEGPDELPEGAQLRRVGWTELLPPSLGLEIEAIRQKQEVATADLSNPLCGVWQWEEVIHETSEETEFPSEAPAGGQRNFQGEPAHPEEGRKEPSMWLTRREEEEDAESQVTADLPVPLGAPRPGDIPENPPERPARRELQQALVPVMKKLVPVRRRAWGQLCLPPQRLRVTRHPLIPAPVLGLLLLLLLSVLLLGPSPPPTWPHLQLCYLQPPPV

pdz1i_human PDZK1IP1 = target: T2, pdz1i_human PDZK1IP1 (UniProt Q13113)
T2 sequence: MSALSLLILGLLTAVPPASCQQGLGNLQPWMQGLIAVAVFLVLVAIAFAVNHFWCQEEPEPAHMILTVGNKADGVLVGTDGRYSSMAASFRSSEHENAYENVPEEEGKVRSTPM

cgrf1_human CGRRF1 = target: T3, cgrf1_human CGRRF1 (UniProt Q99675)
T3 sequence: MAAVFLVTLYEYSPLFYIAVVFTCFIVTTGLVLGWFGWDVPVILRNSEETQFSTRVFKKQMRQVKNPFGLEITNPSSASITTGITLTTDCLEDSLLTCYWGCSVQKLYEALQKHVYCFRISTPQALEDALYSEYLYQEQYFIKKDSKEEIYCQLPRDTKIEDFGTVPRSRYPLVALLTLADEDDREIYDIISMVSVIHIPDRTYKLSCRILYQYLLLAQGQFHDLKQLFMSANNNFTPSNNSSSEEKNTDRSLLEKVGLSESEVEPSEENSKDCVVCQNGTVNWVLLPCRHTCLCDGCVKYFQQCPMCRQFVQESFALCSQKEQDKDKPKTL

amgo1_human AMIGO1 = target: T4, amgo1_human AMIGO1 (UniProt Q86WK6)
T4 sequence: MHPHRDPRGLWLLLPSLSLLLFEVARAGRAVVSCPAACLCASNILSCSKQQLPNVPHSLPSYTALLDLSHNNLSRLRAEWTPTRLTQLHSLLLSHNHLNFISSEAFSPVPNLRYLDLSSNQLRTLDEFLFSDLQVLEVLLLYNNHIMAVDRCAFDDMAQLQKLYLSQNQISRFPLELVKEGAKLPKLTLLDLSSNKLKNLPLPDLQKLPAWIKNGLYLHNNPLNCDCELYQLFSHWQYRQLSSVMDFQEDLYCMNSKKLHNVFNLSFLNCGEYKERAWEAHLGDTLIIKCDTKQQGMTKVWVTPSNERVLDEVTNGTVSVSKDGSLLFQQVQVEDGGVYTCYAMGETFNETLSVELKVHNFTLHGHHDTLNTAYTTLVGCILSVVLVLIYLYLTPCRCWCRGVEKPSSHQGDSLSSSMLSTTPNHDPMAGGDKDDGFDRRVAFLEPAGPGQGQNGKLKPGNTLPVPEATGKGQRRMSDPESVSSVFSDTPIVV

crtp1_human CYSRT1 = target: T5, crtp1_human CYSRT1 (UniProt A8MQ03)
T5 sequence: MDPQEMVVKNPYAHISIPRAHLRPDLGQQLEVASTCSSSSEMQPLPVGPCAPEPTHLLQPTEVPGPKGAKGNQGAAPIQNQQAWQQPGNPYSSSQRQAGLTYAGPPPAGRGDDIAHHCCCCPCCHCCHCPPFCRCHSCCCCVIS

bik_human BIK = bik_human BIK (UniProt Q13323)
Sequence of bik_human BIK (Q13323 whole entry): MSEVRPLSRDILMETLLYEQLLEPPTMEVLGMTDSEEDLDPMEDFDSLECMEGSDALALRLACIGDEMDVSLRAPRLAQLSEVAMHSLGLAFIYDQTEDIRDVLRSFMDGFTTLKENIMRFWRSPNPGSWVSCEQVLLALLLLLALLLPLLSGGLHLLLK

cisd2_human CISD2 = target: T6, cisd2_human CISD2 (UniProt Q8N5K1)
T6 sequence: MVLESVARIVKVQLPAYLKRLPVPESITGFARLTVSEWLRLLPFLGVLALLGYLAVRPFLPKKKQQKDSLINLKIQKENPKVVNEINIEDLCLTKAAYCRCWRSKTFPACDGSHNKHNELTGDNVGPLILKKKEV

ergi3_human ERGIC3 = ergi3_human ERGIC3 (UniProt Q9Y282)
Sequence of ergi3_human ERGIC3 (Q9Y282 whole entry): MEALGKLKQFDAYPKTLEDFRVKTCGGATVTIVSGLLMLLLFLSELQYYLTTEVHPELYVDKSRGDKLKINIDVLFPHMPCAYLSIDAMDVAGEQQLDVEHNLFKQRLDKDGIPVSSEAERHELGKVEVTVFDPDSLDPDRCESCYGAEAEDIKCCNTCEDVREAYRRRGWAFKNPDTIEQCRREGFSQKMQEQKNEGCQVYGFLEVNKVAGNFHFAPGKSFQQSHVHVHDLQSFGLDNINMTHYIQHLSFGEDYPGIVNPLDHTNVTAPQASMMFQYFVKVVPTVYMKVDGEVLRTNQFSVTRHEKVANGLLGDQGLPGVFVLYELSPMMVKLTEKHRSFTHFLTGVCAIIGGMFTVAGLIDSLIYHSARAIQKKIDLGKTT

gpx8_human GPX8 = target: T7, gpx8_human GPX8 (UniProt Q8TED1)
T7 sequence: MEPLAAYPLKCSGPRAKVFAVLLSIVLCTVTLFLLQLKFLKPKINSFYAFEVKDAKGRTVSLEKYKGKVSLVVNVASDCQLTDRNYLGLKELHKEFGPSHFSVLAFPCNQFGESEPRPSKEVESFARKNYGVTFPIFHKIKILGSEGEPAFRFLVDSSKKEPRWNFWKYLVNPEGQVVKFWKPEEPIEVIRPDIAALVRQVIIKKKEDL

cplx4_human CPLX4 = target: T8, cplx4_human CPLX4 (UniProt Q7Z7G2)
T8 sequence: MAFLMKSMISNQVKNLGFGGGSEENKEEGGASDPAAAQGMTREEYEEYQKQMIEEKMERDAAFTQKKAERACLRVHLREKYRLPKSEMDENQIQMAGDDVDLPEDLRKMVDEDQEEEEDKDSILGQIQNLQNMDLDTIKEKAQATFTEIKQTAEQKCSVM

ar13b_human ARL13B = ar13b_human ARL13B (UniProt Q3SXY8)
Sequence of ar13b_human ARL13B (Q3SXY8 whole entry): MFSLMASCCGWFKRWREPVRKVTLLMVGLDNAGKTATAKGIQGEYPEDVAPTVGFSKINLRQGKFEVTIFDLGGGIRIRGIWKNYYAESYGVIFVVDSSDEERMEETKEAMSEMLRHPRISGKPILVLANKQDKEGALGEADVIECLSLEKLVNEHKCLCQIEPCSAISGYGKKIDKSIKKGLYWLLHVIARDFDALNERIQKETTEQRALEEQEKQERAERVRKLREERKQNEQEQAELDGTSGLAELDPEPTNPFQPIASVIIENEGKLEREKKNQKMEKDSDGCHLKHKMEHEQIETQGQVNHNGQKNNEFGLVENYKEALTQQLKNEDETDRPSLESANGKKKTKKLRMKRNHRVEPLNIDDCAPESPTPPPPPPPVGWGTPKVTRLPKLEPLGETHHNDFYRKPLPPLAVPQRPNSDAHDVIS

Sequence of gp152_human GPR152 (Q8TDT2 whole entry): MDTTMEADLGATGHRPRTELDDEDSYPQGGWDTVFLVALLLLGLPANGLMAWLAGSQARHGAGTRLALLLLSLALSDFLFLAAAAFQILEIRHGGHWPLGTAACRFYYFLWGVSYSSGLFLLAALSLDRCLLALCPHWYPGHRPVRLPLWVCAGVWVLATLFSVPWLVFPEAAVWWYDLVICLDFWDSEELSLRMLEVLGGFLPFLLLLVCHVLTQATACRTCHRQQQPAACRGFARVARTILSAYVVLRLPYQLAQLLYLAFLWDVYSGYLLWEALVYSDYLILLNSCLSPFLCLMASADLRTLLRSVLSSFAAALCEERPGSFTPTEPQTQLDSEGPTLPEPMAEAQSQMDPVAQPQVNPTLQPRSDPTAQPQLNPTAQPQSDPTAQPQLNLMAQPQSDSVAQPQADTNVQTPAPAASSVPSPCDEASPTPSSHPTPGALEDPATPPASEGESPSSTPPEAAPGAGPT
Sequence of tm52b_human TMEM52B (Q4KMG9 whole entry): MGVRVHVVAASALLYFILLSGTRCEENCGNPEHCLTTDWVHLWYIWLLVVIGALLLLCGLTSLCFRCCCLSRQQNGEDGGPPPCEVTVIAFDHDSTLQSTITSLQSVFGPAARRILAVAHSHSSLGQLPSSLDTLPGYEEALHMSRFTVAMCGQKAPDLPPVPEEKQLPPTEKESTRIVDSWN

- effect of a mutation on the interaction (gp152_human GPR152): with no effect
- effect of a mutation on the interaction (tm52b_human TMEM52B): disrupting interaction strength
- effect of a mutation on the interaction (kash5_human KASH5): disrupting interaction strength
- effect of a mutation on the interaction (pdz1i_human PDZK1IP1): with no effect
- effect of a mutation on the interaction (cgrf1_human CGRRF1): with no effect
- effect of a mutation on the interaction (amgo1_human AMIGO1): disrupting interaction strength
- effect of a mutation on the interaction (crtp1_human CYSRT1): disrupting interaction strength
- effect of a mutation on the interaction (bik_human BIK): with no effect
- effect of a mutation on the interaction (cisd2_human CISD2): with no effect
- effect of a mutation on the interaction (ergi3_human ERGIC3): with no effect
- effect of a mutation on the interaction (gpx8_human GPX8): with no effect
- effect of a mutation on the interaction (cplx4_human CPLX4): with no effect
- effect of a mutation on the interaction (ar13b_human ARL13B): with no effect
Substance: Acyltransferase PGAP2 (Homo sapiens) (from UniProt Q9UHJ9-5) T160I
